The target in test [1] is recombinant human IL-6R-extracellular domain (ECD) (human) (UniProt P08887). The test can be described thus: SPR. Background: Surface plasmon resonance follows binding to a sensor surface in real time, without labels.
Test [2] shares this target. The test can be described thus: direct ELISA on IL-6R. In general terms: An ELISA detects its analyte on a solid surface through an enzyme-linked reagent.
For test [3], the target named is IL-6R on human myeloma U266B1 cells (human) (UniProt P08887). Kind of test: cell-based or functional assay.
IL-6R on human myeloma U266B1 cells (human), sequence (P08887 20-468): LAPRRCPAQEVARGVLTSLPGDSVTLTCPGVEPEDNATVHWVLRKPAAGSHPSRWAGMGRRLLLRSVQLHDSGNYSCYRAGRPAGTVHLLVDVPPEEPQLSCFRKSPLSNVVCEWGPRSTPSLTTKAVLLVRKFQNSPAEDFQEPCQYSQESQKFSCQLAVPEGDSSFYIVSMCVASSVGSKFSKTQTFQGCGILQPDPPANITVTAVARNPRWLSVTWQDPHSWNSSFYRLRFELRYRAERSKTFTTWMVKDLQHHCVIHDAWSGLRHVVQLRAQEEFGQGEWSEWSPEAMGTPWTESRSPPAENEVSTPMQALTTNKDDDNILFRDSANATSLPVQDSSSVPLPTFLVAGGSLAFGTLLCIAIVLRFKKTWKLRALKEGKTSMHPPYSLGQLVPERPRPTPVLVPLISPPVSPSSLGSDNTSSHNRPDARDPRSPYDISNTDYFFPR
Test [4] has the same target. The test can be described thus: cell-based or functional assay. This is another data set of the same source.
Test [5] has the same target. Kind of test: FACS on U266B1 cells.
Test [6] has the same target. Kind of test: FACS binding to IL-6R on U266B1 cells. (A flow cytometer gives signals particle by particle.)
For test [7] the target is unchanged. Kind of test: FACS binding to IL-6R on U266B1 cells. The source holds these as a separate data set.
Test [8] has as its target recombinant human IL-6R-extracellular domain (ECD) (human) (UniProt P08887). The test can be described thus: receptor-ligand ELISA, blocking of IL-6 binding to IL-6R.
Test [9] has the same target. Described as above. The source holds these as a separate data set.

This note sets out measurements from patent US20120225060A1.

Where two headings read alike, the source gives them in different places.

recombinant human IL-6R-extracellular domain (ECD) (human), sequence (P08887 20-365): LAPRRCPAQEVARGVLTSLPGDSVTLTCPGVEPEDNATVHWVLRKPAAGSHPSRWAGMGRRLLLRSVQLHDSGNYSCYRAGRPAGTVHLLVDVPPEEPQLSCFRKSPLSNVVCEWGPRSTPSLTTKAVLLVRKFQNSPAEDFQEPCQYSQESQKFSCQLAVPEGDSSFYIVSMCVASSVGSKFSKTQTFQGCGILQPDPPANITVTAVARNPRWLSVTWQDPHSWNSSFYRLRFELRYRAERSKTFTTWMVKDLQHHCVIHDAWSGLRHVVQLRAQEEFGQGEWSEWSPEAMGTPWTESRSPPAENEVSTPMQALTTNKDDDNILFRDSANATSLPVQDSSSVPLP

B1: Tocilizumab (antibody, part only; not given: constant regions, V domains shown, not shown: another chain or arm of the molecule)
VH: QVQLQESGPGLVRPSQTLSLTCTVSGYSITSDHAWSWVRQPPGRGLEWIGYISYSGITTYNPSLKSRVTMLRDTSKNQFSLRLSSVTAADTAVYYCARSLARTTAMDYWGQGSLVTVSS
VL: DIQMTQSPSSLSASVGDRVTITCRASQDISSYLNWYQQKPGKAPKLLIYYTSRLHSGVPSRFSGSGSGTDFTFTISSLQPEDIATYYCQQGNTLPYTFGQGTKVEIK
With B1, the Kd (usually the free concentration of one partner at which half of the binding sites on the other are occupied at equilibrium, for simple one-to-one binding) in test [1] worked out at 3.85 nM. For the same molecule, in test [1], the dissociation rate constant (koff) – broadly, the rate constant with which the complex falls apart – amounted to 0.00097 s⁻¹. In addition, the kon (usually a measure of how fast the partners come together) in test [1] worked out at 252000 M⁻¹ s⁻¹. The EC50 (in general, the midpoint of the concentration-response curve) was 0.0458 µg/mL in test [2], 0.206 µg/mL in [6] and 0.602 µg/mL in test [7]. Besides, the TF-1 proliferation IC50 in test [3] was determined as 0.04 µg/mL; in test [4] it was 0.214 µg/mL. For the same molecule, the concentration giving a half-maximal response (EC50 (read off the curve)) (usually the concentration that produces a half-maximal response) in [5] amounted to 0.6 µg/mL. Further, the IC50 (in general, the concentration needed to halve the response being measured) in test [8] amounted to 0.56 µg/mL; in test [9] it was 1.1 µg/mL.
